{"source": "the nanobody polyreactivity screen of Harvey et al. (2022)"}
{"experiment": "yeast display, Sf9 membrane polyspecificity reagent, FACS + sequencing; frameworks hold sequencing errors", "procedure,_shortened": "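In a synthetic yeast display library (Saccharomyces cerevisiae BJ5465), nanobody expression was induced with galactose for 36–48 hours. FACS gates were set low and high (top ~1%) using anti-HA fluorescence for expression and streptavidin fluorescence for binding of the Sf9 membrane reagent. Each polyreactivity label is drawn from the gate of origin.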"}
{"sequence": "QVQLVESGGGLVQAGGSLRLSCAASGSTFGAYDMGWYRQAPGKERELVAVISSRDGSTYYADSVKGRFTISRDNAKNTVYLQMNSLKPEDTAVYYCAADYPVPYNGGDGSWGQGTQVTVSS", "polyreactivity (PSR sort gate)": "low polyreactivity"}
{"sequence": "QVQLVESGGGLVQAGGSLRLSCAASGSTFGAYVMGWYRQAPGTERELVAVISSGGSTKYADSVKGRFTISRDNAKNTVYLQMNSLKPEDTAVYYCSARRASRHRYYPFDYWGQGTQVTVSS", "polyreactivity (PSR sort gate)": "high polyreactivity"}
{"sequence": "QVQLVESGGGLVQAGGSLRLSCAASGSTFGDNAMGWYRQAPGKERELVATITSGGNTNYADSVKGRFTISRDNAKNTVYLQMNSLKPEDTAGYYCNTDFRPAGTTGTTTARYEYWGQGTQVTLSS", "polyreactivity (PSR sort gate)": "low polyreactivity"}
{"sequence": "QVQLVESGGGLVQAGGSLRLSCAASGSTFGDYAMGGYRQAPGKERELVAAISFSDGSTYYADSVKGRFTISRDNAKNTVYLQMNSLKPEDTAVYYCAKDAYWGYRWYTYDYWGQGTQVTVSS", "polyreactivity (PSR sort gate)": "low polyreactivity"}
{"sequence": "QVQLVESGGGLVQAGGSLRLSCAASGSTFGDYAMGGYRQAPGKERELVAANDQNGGSTYYADSVKGRITISRDNAKNTVYLQMNSLIPEDTAVYYCAAESIYDWYDYGGQGTQVTVSS", "polyreactivity (PSR sort gate)": "low polyreactivity"}
{"sequence": "QVQLVESGGGLVQAGGSLRLSCAASGSTFGDYAMGWYRQAPGKREFVAAISFSGGNTYYADSVKGRFTISRDNAKNTVYLQMNSLKPEDTAVYYCNASSYPWEYYYLYYGYDYWGQGTQVTVSS", "polyreactivity (PSR sort gate)": "low polyreactivity"}
{"sequence": "QVQLVESGGGLVQAGGSLRLSCAASGSTFGEYAMGWSRQAPGKERELVATITSAGSTYYADSVKGRITFSRDNAKYTVYLQMNSLKPEDTAVYYCAVDPISQGHMDYWVQGTQVTVSS", "polyreactivity (PSR sort gate)": "low polyreactivity"}
{"sequence": "QVQLVESGGGLVQAGGSLRLSCAASGSTFGEYAMGWYRQAPGKERELVAVITSDDNTYYADSVKGRFTISRDNAKNTVYLQMNSLKPEDTAVYYCAARGYVLARSQQWRREYYWGQGTQVTVSS", "polyreactivity (PSR sort gate)": "high polyreactivity"}
{"sequence": "QVQLVESGGGLVQAGGSLRLSCAASGSTFGFNALGWYRQAPGKERELVAAITFSGGTTYYADSVKGRFTISRDNAKNTVYLQMNSLKPEDTAVYYCNADVKRDRVWGGDYWGQGTQVTVSS", "polyreactivity (PSR sort gate)": "low polyreactivity"}
{"sequence": "QVQLVESGGGLVQAGGSLRLSCAASGSTFGFNAMGWYRQAPGKERELVAAINSGSTTYADSVKGRFTISRDNAKNTVYLQMNSLKPEDTAVYYCAARYRYRYGYYYWGQGTQVTVSS", "polyreactivity (PSR sort gate)": "high polyreactivity"}
{"sequence": "QVQLVESGGGLVQAGGSLRLSCAASGSTFGFYAMGWYRQAPGKEREFVAAITWSGGRTNYADSVKGRFTISRDNAKNTVYLQMNSLKPEDTAVYYCAAEGFVTWYRQGQVYYWGQGTQVTVSS", "polyreactivity (PSR sort gate)": "high polyreactivity"}
{"sequence": "QVQLVESGGGLVQAGGSLRLSCAASGSTFGFYMGWYRQAPGKERELVAAIDSSGGITYADSVKGRFTISRDNAKNTVYLQMNSLKPEDTAVYYCNTSYPIAPEDDYWGQGTQVTVSS", "polyreactivity (PSR sort gate)": "low polyreactivity"}
{"sequence": "QVQLVESGGGLVQAGGSLRLSCAASGSTFGGNAMGWYRQAPGKERELVAAISSSGGSTYYADSVKGRFTISRDNAKITVYLQMNSLKPEDTAVYYCAALYHWTYDYWGQGTQVTVSS", "polyreactivity (PSR sort gate)": "low polyreactivity"}
{"sequence": "QVQLVESGGGLVQAGGSLRLSCAASGSTFGGNAMGWYRQAPGKERELVAAISSSGGSTYYADSVKGRFTISRDNAKNTVYLQMNSLKPEDTAVYYCAALYHWTYDYWGQGTQVTVSS", "polyreactivity (PSR sort gate)": "low polyreactivity"}
{"sequence": "QVQLVESGGGLVQAGGSLRLSCAASGSTFGGNAMGWYRQAPGKERELVAGITSSGTSTYYADSVKGRFTISRDNAKNTVYLQMNSLKPEDTAVYYCATDEADESYGFELFDYWGQGTQVTVSS", "polyreactivity (PSR sort gate)": "low polyreactivity"}
{"sequence": "QVQLVESGGGLVQAGGSLRLSCAASGSTFGGNDMGWYRQAPGKERELVAAISSGTSTNYADSVKGRFTISRDNAKNTVYLQMNSLKPEDTAVYYCAAVYWVLWQGSTYGYWGQGTQVTVSS", "polyreactivity (PSR sort gate)": "low polyreactivity"}
{"sequence": "QVQLVESGGGLVQAGGSLRLSCAASGSTFGGYAMGWYRQAPGKERELVAAISFDGGSTYADSVKGRFTISRDNAKNTVYLQMNSLKPEDTAVYYCAVKFWLVIQFDYCGQGTQVTVSS", "polyreactivity (PSR sort gate)": "low polyreactivity"}
{"sequence": "QVQLVESGGGLVQAGGSLRLSCAASGSTFGGYAMGWYRQAPGKERELVAAISRRGVSTYYADSVKGRFTISRDNAKNTVYLQMNSLKPEDTAVYYFNKKYFYSRHGSWGQGSQVTVSS", "polyreactivity (PSR sort gate)": "high polyreactivity"}
{"sequence": "QVQLVESGGGLVQAGGSLRLSCAASGSTFGGYAMGWYRQAPRKERELVAAISQSGTRTFYADSVKGRFSISRDNAKNTVYLQMKSLKPEDSAVYYCAAVRSYRRALLTLDYWGLGTQVTVSS", "polyreactivity (PSR sort gate)": "high polyreactivity"}
{"sequence": "QVQLVESGGGLVQAGGSLRLSCAASGSTFGGYAMGWYRQEPGKERELVAAISSRGARTYYADSVKGRFTISRDNAKKTVYLQMNSLKPEDTAVYYCAARGPLDRYGYWGQGTQVTVSS", "polyreactivity (PSR sort gate)": "high polyreactivity"}
{"sequence": "QVQLVESGGGLVQAGGSLRLSCAASGSTFGGYPMGRYRQAPGKERELGAAITWSGSSTTYADSVKGRFTISRDNAKKTVYLQMNSLKPEETAVYYCAAEAQDSTYPQYDYWGQGTLVTVSS", "polyreactivity (PSR sort gate)": "low polyreactivity"}
{"sequence": "QVQLVESGGGLVQAGGSLRLSCAASGSTFGGYTMGWYRQAPGKERELVAAISRRGGSTYYADSVKGRFTISRDNAKNTVYLQMNSLKPEDTAVYYCAALYVYRPRTPYGYWGQGTQVTVSS", "polyreactivity (PSR sort gate)": "high polyreactivity"}
{"sequence": "QVQLVESGGGLVQAGGSLRLSCAASGSTFGGYVMGWYRQAPGKERELVAAISGNGASTTYADSVKGRFTISRDNAKNTVYLQMNSLKPEDTAVYYCDALYRKAHSDYDYWGQGTQVTVSS", "polyreactivity (PSR sort gate)": "low polyreactivity"}
{"sequence": "QVQLVESGGGLVQAGGSLRLSCAASGSTFGHYAMGWSRQAPGKERELVAAISWSGASTYYADSVKGRFTISRDNAKNTVYLQMNSLKPEDTAVYYCATVGPWPGEYDYWGQGTQVTVSS", "polyreactivity (PSR sort gate)": "low polyreactivity"}
{"sequence": "QVQLVESGGGLVQAGGSLRLSCAASGSTFGHYAMGWSRQAPGKERELVAVISRSGARTYYADSVKGRFTISRDNAKNTVYLQMNSLKPEDTAVYYCATTYATNYDYWGQGTQVTVSS", "polyreactivity (PSR sort gate)": "high polyreactivity"}
{"sequence": "QVQLVESGGGLVQAGGSLRLSCAASGSTFGHYAMGWYRQAPGKERELVAAITRRGGSTYYADSVKGRFTISRDNAKNTVYLQMNSLKPEDTAVYYCATDKHYVYYSSHMGYWGQGTQVTVSS", "polyreactivity (PSR sort gate)": "high polyreactivity"}
{"sequence": "QVQLVESGGGLVQAGGSLRLSCAASGSTFGHYAMRSYRQAPGKERQLVAGITDTDNHELRRLCEGRFTISRDNAKNTVYLQMNSLKPEDTAVYDCDAGSNAVFYDYGYWGQGTQVTVSS", "polyreactivity (PSR sort gate)": "low polyreactivity"}
{"sequence": "QVQLVESGGGLVQAGGSLRLSCAASGSTFGHYVMGWYRQAPGKERELVAVISSSGGRTYYADSVKGRFTISRDNAKNTVYLQMNSLKPEDTAVYYCAAGSISTPGRGVDKPDPYDYWGQGTQVTVSS", "polyreactivity (PSR sort gate)": "low polyreactivity"}
{"sequence": "QVQLVESGGGLVQAGGSLRLSCAASGSTFGINAMGWYRQAPGKERDLVAAISSRGGSTYYADSVKGRFTISRDNAKNTVYLLMNSLKPEDTAVYYCAAEFAVSFYWSWLGQDYYYWGQGTQVTVSS", "polyreactivity (PSR sort gate)": "high polyreactivity"}
{"sequence": "QVQLVESGGGLVQAGGSLRLSCAASGSTFGINAMGWYRQAPGKERELVARISTGVRTYYADSVKGRFTISRDNAKNTVYLQMNSLKPEDTAVYYCAAVYYRGVDRAILSYRYYYWGQGTQVTVSS", "polyreactivity (PSR sort gate)": "high polyreactivity"}
{"sequence": "QVQLVESGGGLVQAGGSLRLSCAASGSTFGINTMGWYRQAPGKERELVATISQRGTRTYYADSVKGRFTISRDNAKNTVYLQMNSLKPEDTAVYYCNKDVYLYYYTRRSGRLDYWGQGTQVTVSS", "polyreactivity (PSR sort gate)": "high polyreactivity"}
{"sequence": "QVQLVESGGGLVQAGGSLRLSCAASGSTFGIYAMGWYRQAPGKERELVAAISWRGGRTYYADSVKGRFTISRDNAKNTVYLQMNSLKPEDTAVYYCAADYRYLWEGYDYWGQGTQVTVSS", "polyreactivity (PSR sort gate)": "low polyreactivity"}
